The test has as its target nucleosome with Cy5-labeled human histone octamer (H2A(K119C), H2B, H3(C110A), H4) reconstituted on lambda DNA (human) (UniProt P06899). Put plainly: single-molecule fluorescence colocalisation.

As to “Cy3-labeled human linker histone H1.0(S22C) (from UniProt P07305 1-194) (natural protein)”, the nucleosome co-localization dwell time τ slow (with 2 nM Nap1) was 1.1 s.

Source of the values: paper PMC11888354.
